Measurements from paper doi:10.1101/2024.06.04.597356.

Molecular target: CspA (UniProt P0A9X9 1-70)
Assay: molecular beacon unfolding

Sequence of CspA (P0A9X9 whole entry): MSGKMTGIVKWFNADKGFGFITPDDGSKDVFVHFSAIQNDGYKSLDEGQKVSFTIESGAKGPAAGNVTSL

B1: 78-nt molecular beacon (structured_DNA)
DNA: AGGGTTCTTTGTGGTGTTTTTATCTGTGCTTCCCTATGCACCGCCGACGACAGTCGCTAACCTCTCGCTAAGAACCCT
binding result: binds
